Results: patent publication US20120172293A1 (Takeda / Millennium, published 2012)
Starred links: 1 amine or outer side, 2 acyl side, 3 side chain; linkers in the order of their positions; H or OH if unused. Non-standard residues stand in square brackets, D forms with d. No end group written: not given here. *: point of attachment. X3 = ((1S)-1-Carboxy-2-hydroxyethyl)carbamoyl, O=C(O)[C@H](CO)NC(=O)*; X8 = (2-Hydroxy-1-(hydroxymethyl)ethyl)carbamoyl, O=C(NC(CO)CO)*; Ala(piperidin-4-yl) = O=C([C@H](CC1CCN([*:3])CC1)N[*:1])[*:2]; X7 = (tetrahydro-2H-pyran-4-yl)carbamoyl, O=C(NC1CCOCC1)*; (3-carboxypropyl)carbamoyl = O=C(O)CCCNC(=O)*; (carboxymethyl)carbamoyl = O=C(O)CNC(=O)*; Imidazole4carbonyl = O=C(c1cnc[nH]1)*; Arg(Me) = CNC(=N)NCCC[C@H](N)C(=O)O; hArg = N=C(N)NCCCC[C@H](N)C(=O)O; 4Pal = N[C@@H](Cc1ccncc1)C(=O)O; Cha = N[C@@H](CC1CCCCC1)C(=O)O; Suc = O=C(CCC(=O)[*:2])[*:1]; Iva = CC[C@](C)(N)C(=O)O; Aib = CC(C)(N)C(=O)O; Ahx = NCCCCCC(=O)O

Experiments:
[1] = molecular target: human Y2 receptor (human) (UniProt P49146); assay: cell-based or functional assay
[2] = molecular target: human Y2 receptor (human) (UniProt P49146); assay: RBA: displacement of [125I]-PYY from hY2R/CHO membranes

Sequence of human Y2 receptor (human) (P49146 whole entry): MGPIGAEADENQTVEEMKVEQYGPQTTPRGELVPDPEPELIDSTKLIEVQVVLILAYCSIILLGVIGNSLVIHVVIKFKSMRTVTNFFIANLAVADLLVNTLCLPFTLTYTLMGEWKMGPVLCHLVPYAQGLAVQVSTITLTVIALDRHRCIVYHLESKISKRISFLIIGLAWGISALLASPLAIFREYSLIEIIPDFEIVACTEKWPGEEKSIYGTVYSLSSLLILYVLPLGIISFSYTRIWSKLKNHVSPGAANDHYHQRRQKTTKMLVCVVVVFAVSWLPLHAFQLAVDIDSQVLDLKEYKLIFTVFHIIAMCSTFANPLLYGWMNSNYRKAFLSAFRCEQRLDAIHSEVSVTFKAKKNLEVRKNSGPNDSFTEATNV

| Binder | GBA EC50 Ratio ([35S]GTPγS binding) (EC50 compound/EC50 PYY(3-36)) [1] | IC50 Ratio (IC50 compound/IC50 PYY(3-36)) [2] |
| --- | --- | --- |
| Ac-S[dP][Ala(piperidin-4-yl)][4Pal][Cha][Aib]NK[Aib]TRQR[Cha]-NH2 (also: Ala(4Pip)25 D or L, not assigned, former peak isomer) [Ac-[D-Pro24, Ala(4Pip)25, Pya(4)26, Cha27,36, Aib28,31, Lys30]-PYY(23-36) former peak] | 14 | 18 |
| X8-S[dP][Iva][4Pal][Cha][Aib]NK[Aib]TRQR[Cha]-NH2 (SMILES CC[C@](C)(NC(=O)[C@H]1CCCN1C(=O)[C@H](CO)NC(=O)NC(CO)CO)C(=O)N[C@@H](Cc1ccncc1)C(=O)N[C@@H](CC1CCCCC1)C(=O)NC(C)(C)C(=O)N[C@@H](CC(N)=O)C(=O)N[C@@H](CCCCN)C(=O)NC(C)(C)C(=O)N[C@H](C(=O)N[C@@H](CCCNC(=N)N)C(=O)N[C@@H](CCC(N)=O)C(=O)N[C@@H](CCCNC(=N)N)C(=O)N[C@@H](CC1CCCCC1)C(N)=O)[C@@H](C)O) | 2 | 1.76 |
| Ac-E[dP][Iva][4Pal][Cha][Aib]NK[Aib]TRQR[Cha]-NH2 (SMILES CC[C@](C)(NC(=O)[C@H]1CCCN1C(=O)[C@H](CCC(=O)O)NC(C)=O)C(=O)N[C@@H](Cc1ccncc1)C(=O)N[C@@H](CC1CCCCC1)C(=O)NC(C)(C)C(=O)N[C@@H](CC(N)=O)C(=O)N[C@@H](CCCCN)C(=O)NC(C)(C)C(=O)N[C@H](C(=O)N[C@@H](CCCNC(=N)N)C(=O)N[C@@H](CCC(N)=O)C(=O)N[C@@H](CCCNC(=N)N)C(=O)N[C@@H](CC1CCCCC1)C(N)=O)[C@@H](C)O) [Ac-[Glu23, D-Pro24, Iva25, Pya(4)26, Cha27,36, Aib28,31, Lys30]-PYY(23-36)] | 2.8 | 6.1 |
| Carbamoylmethylcarbamoyl-S[dP][Iva][4Pal][Cha][Aib]NK[Aib]TRQR[Cha]-NH2 [Carbamoylmethylcarbamoyl-[D-Pro24, Iva25, Pya(4)26, Cha27,36, Aib28,31, Lys30]-PYY(23-36)] | 1.7 | 1.7 |
| {(3-carboxypropyl)carbamoyl}-S[dP][Iva][4Pal][Cha][Aib]NK[Aib]TRQR[Cha]-NH2 (SMILES CC[C@](C)(NC(=O)[C@H]1CCCN1C(=O)[C@H](CO)NC(=O)NCCCC(=O)O)C(=O)N[C@@H](Cc1ccncc1)C(=O)N[C@@H](CC1CCCCC1)C(=O)NC(C)(C)C(=O)N[C@@H](CC(N)=O)C(=O)N[C@@H](CCCCN)C(=O)NC(C)(C)C(=O)N[C@H](C(=O)N[C@@H](CCCNC(=N)N)C(=O)N[C@@H](CCC(N)=O)C(=O)N[C@@H](CCCNC(=N)N)C(=O)N[C@@H](CC1CCCCC1)C(N)=O)[C@@H](C)O) [(3-Carboxypropyl)carbamoyl-[D-Pro24, Iva25, Pya(4)26, Cha27,36, Aib28,31, Lys30]-PYY(23-36)] | 1.9 | 1.6 |
| Ac-S[dP][Ala(piperidin-4-yl)][4Pal][Cha][Aib]NK[Aib]TRQR[Cha]-NH2 (also: Ala(4Pip)25 D or L, not assigned, later peak isomer) [Ac-[D-Pro24, Ala(4Pip)25, Pya(4)26, Cha27,36, Aib28,31, Lys30]-PYY(23-36) later peak] | 5.8 | 4.3 |
| X7-S[dP][Iva][4Pal][Cha][Aib]NK[Aib]TRQR[Cha]-NH2 (SMILES CC[C@](C)(NC(=O)[C@H]1CCCN1C(=O)[C@H](CO)NC(=O)NC1CCOCC1)C(=O)N[C@@H](Cc1ccncc1)C(=O)N[C@@H](CC1CCCCC1)C(=O)NC(C)(C)C(=O)N[C@@H](CC(N)=O)C(=O)N[C@@H](CCCCN)C(=O)NC(C)(C)C(=O)N[C@H](C(=O)N[C@@H](CCCNC(=N)N)C(=O)N[C@@H](CCC(N)=O)C(=O)N[C@@H](CCCNC(=N)N)C(=O)N[C@@H](CC1CCCCC1)C(N)=O)[C@@H](C)O) [(Tetrahydro-2H-pyran-4-yl)carbamoyl-[D-Pro24, Iva25, Pya(4)26, Cha27,36, Aib28,31, Lys30]-PYY(23-36)] | 1.8 | 1.7 |
| Ac-S[dP][Arg(Me)][4Pal][Cha][Aib]N[Arg(Me)][Aib]TRQR[Cha]-NH2 (SMILES CNC(=N)NCCC[C@H](NC(=O)[C@H](CC(N)=O)NC(=O)C(C)(C)NC(=O)[C@H](CC1CCCCC1)NC(=O)[C@H](Cc1ccncc1)NC(=O)[C@H](CCCNC(=N)NC)NC(=O)[C@H]1CCCN1C(=O)[C@H](CO)NC(C)=O)C(=O)NC(C)(C)C(=O)N[C@H](C(=O)N[C@@H](CCCNC(=N)N)C(=O)N[C@@H](CCC(N)=O)C(=O)N[C@@H](CCCNC(=N)N)C(=O)N[C@@H](CC1CCCCC1)C(N)=O)[C@@H](C)O) [Ac-[D-Pro24, Arg(Me)25,30, Pya(4)26, Cha27,36, Aib28,31]-PYY(23-36)] | 1.5 | 1.5 |
| Imidazole4carbonyl-S[dP][Iva][4Pal][Cha][Aib]N[Cha][Aib]TRQR[Cha]-NH2 (SMILES CC[C@](C)(NC(=O)[C@H]1CCCN1C(=O)[C@H](CO)NC(=O)c1cnc[nH]1)C(=O)N[C@@H](Cc1ccncc1)C(=O)N[C@@H](CC1CCCCC1)C(=O)NC(C)(C)C(=O)N[C@@H](CC(N)=O)C(=O)N[C@@H](CC1CCCCC1)C(=O)NC(C)(C)C(=O)N[C@H](C(=O)N[C@@H](CCCNC(=N)N)C(=O)N[C@@H](CCC(N)=O)C(=O)N[C@@H](CCCNC(=N)N)C(=O)N[C@@H](CC1CCCCC1)C(N)=O)[C@@H](C)O) [4-Imidazolecarbonyl-[D-Pro24, Iva25, Pya(4)26, Cha27,30,36, Aib28,31]-PYY(23-36)] | 1.9 | 2.3 |
| Ac-S[dP][Iva][4Pal][Cha][Aib]N[hArg][Aib]TRQR[Cha]-NH2 (SMILES CC[C@](C)(NC(=O)[C@H]1CCCN1C(=O)[C@H](CO)NC(C)=O)C(=O)N[C@@H](Cc1ccncc1)C(=O)N[C@@H](CC1CCCCC1)C(=O)NC(C)(C)C(=O)N[C@@H](CC(N)=O)C(=O)N[C@@H](CCCCNC(=N)N)C(=O)NC(C)(C)C(=O)N[C@H](C(=O)N[C@@H](CCCNC(=N)N)C(=O)N[C@@H](CCC(N)=O)C(=O)N[C@@H](CCCNC(=N)N)C(=O)N[C@@H](CC1CCCCC1)C(N)=O)[C@@H](C)O) [Ac-[D-Pro24, Iva25, Pya(4)26, Cha27,36, Aib28,31, Har30]-PYY(23-36)] | 1 | 0.65 |
| X3-S[dP][Iva][4Pal][Cha][Aib]NK[Aib]TRQR[Cha]-NH2 (SMILES CC[C@](C)(NC(=O)[C@H]1CCCN1C(=O)[C@H](CO)NC(=O)N[C@@H](CO)C(=O)O)C(=O)N[C@@H](Cc1ccncc1)C(=O)N[C@@H](CC1CCCCC1)C(=O)NC(C)(C)C(=O)N[C@@H](CC(N)=O)C(=O)N[C@@H](CCCCN)C(=O)NC(C)(C)C(=O)N[C@H](C(=O)N[C@@H](CCCNC(=N)N)C(=O)N[C@@H](CCC(N)=O)C(=O)N[C@@H](CCCNC(=N)N)C(=O)N[C@@H](CC1CCCCC1)C(N)=O)[C@@H](C)O) | 3 | 3.5 |
| Ac-R[dP][Iva][4Pal][Cha][Aib]NK[Aib]TRQR[Cha]-NH2 (SMILES CC[C@](C)(NC(=O)[C@H]1CCCN1C(=O)[C@H](CCCNC(=N)N)NC(C)=O)C(=O)N[C@@H](Cc1ccncc1)C(=O)N[C@@H](CC1CCCCC1)C(=O)NC(C)(C)C(=O)N[C@@H](CC(N)=O)C(=O)N[C@@H](CCCCN)C(=O)NC(C)(C)C(=O)N[C@H](C(=O)N[C@@H](CCCNC(=N)N)C(=O)N[C@@H](CCC(N)=O)C(=O)N[C@@H](CCCNC(=N)N)C(=O)N[C@@H](CC1CCCCC1)C(N)=O)[C@@H](C)O) [Ac-[Arg23, D-Pro24, Iva25, Pya(4)26, Cha27,36, Aib28,31, Lys30]-PYY(23-36)] | 0.78 | 0.88 |
| [Ahx][dP]R[4Pal][Cha][Aib]NK[Aib]TRQR[Cha]-NH2 (not fully specified (N-terminus); printed as Ac-Acp-D-Pro-Arg-Pya(4)-Cha-Aib-Asn-Lys-Aib-Thr-Arg-Gln-Arg-Cha-NH2) [[Acp23, D-Pro24, Pya(4)26, Cha27,36, Aib28,31, Lys30]-PYY(23-36)] | 1.1 | 0.32 |
| Ac-S[dP][Iva][4Pal][Cha][Aib]N[Arg(Me)][Aib]TRQR[Cha]-NH2 [Ac-[D-Pro24, Iva25, Pya(4)26, Cha27,36, Aib28,31, Arg(Me)30]-PYY(23-36)] | 1.7 | 2.4 |
| {(carboxymethyl)carbamoyl}-S[dP][Iva][4Pal][Cha][Aib]NK[Aib]TRQR[Cha]-NH2 (SMILES CC[C@](C)(NC(=O)[C@H]1CCCN1C(=O)[C@H](CO)NC(=O)NCC(=O)O)C(=O)N[C@@H](Cc1ccncc1)C(=O)N[C@@H](CC1CCCCC1)C(=O)NC(C)(C)C(=O)N[C@@H](CC(N)=O)C(=O)N[C@@H](CCCCN)C(=O)NC(C)(C)C(=O)N[C@H](C(=O)N[C@@H](CCCNC(=N)N)C(=O)N[C@@H](CCC(N)=O)C(=O)N[C@@H](CCCNC(=N)N)C(=O)N[C@@H](CC1CCCCC1)C(N)=O)[C@@H](C)O) [(Carboxymethyl)carbamoyl-[D-Pro24, Iva25, Pya(4)26, Cha27,36, Aib28,31, Lys30]-PYY(23-36)] | 1.6 | 3 |
| Suc-[dP]R[4Pal][Cha][Aib]NK[Aib]TRQR[Cha]-NH2 (SMILES C[C@@H](O)[C@H](NC(=O)C(C)(C)NC(=O)[C@H](CCCCN)NC(=O)[C@H](CC(N)=O)NC(=O)C(C)(C)NC(=O)[C@H](CC1CCCCC1)NC(=O)[C@H](Cc1ccncc1)NC(=O)[C@H](CCCNC(=N)N)NC(=O)[C@H]1CCCN1C(=O)CCC(=O)O)C(=O)N[C@@H](CCCNC(=N)N)C(=O)N[C@@H](CCC(N)=O)C(=O)N[C@@H](CCCNC(=N)N)C(=O)N[C@@H](CC1CCCCC1)C(N)=O) [3-Carboxypropionyl-[D-Pro24, Pya(4)26, Cha27,36, Aib28,31, Lys30]-PYY(24-36)] | 1.2 | 1.2 |
